Experiments:
CD40-Fc [1] = biological target: T1, CD40-Fc ( for this staining reagent …, UniProt P25942); test: flow cytometry, lentivirus-transduced T cells, CD40-Fc + PE-anti-Fc
T1 construct: soluble Fc fusion; Staining reagent, detected with PE-anti-Fc
Description: The transduction efficiency of the CAR-T cells was detected as follows: […] CAR-T cells were plated into each well of a 96-well plate, and the plate was washed once with PBS. 50 μL of Meso-Fc or CD40-Fc protein at a final concentration of 2 μg/mL was added to each well, and the mixture was incubated for 30 min at 4° C. The cells were washed 3 times with PBS, and 50 μL of PE-anti-Fc antibody at a final concentration of 1 μg/mL was added to each well. The mixture was incubated at 4° C. for 30 min. After being washed twice with PBS, the cells were detected by a flow cytometer.

[2] = biological target: T2, mesothelin-Fc recombinant protein (human, UniProt Q13421 296-580, limits assumed); test: flow cytometry, T cells with CAR mRNA, mesothelin-Fc + PE-anti-IgG-Fc; Control 0.63
T2 construct: construct not described; also called Meso-Fc; not shown: Fc part
Description: Mesothelin CAR mRNA obtained in Example 26 above was introduced into A549 tumor cells and T cells by electroporation, and the procedures are as follows: A549 tumor cells and T cells were collected and washed 3 times with the Opti-MEM medium. The cell pellet was resuspended in the Opti-MEM medium and the cell concentration was adjusted to 1×10e7 cells/mL. 10 μg of RNA was aliquoted into 1.5-mL EP tubes, 100 μL of T cells or A549 cells were added, followed by mixing well. 100 μL of cells mixed with RNA were added to the BTX electroporation cuvette and slight tapping was performed to avoid air bubbles. Electroporation was performed using a BTX instrument under the following parameters: for T cells: 500 V voltage, 0.7 ms; for A549 tumor cells: 300 V voltage, 0.5 ms. The cells were then transferred to a pre-warmed medium and cultured at 37° C. The binding of mesothelin CART cells to the mesothelin-Fc recombinant protein was determined by FACS staining. […] T cells without CAR molecules served as the control (“Mock”).

CD40-Fc [3] = biological target: T3, CD40-Fc (human, UniProt P25942); test: flow cytometry of T cells electroporated with 2 µg M12 CAR mRNA alone; CD40-Fc + PE-anti-Fc
T3 construct: part fused to Fc; staining reagent of the flow cytometry; also called recombinant human CD40-Fc antigen protein

T2 sequence (Q13421 other isoform, or with tags, fused parts or gaps limits assumed): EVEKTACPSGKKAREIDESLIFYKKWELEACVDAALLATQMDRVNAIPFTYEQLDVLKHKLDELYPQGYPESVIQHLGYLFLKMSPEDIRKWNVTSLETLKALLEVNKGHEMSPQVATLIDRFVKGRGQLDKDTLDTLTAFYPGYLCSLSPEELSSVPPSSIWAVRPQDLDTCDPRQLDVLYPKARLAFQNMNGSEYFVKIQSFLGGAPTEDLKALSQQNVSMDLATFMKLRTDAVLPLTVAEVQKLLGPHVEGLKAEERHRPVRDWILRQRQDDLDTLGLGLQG

B1: anti-mesothelin scFv-M12 (scFv)
scFv: AIRLTQSPSLLSASVGDRVTVTCRASQGGGNYLAWYQQKPGKAPKLLIYGASKLQSGVPSRFSGSGSGTEFTLTISSLQPEDFATYYCQQLNSYPVTFGQGTKVDIKGGGGSGGGGSGGGGSEVQLVESGAEVKKPGASVKVSCKASGYTFTTYYIHWVRQAPGQGLEWMGIINPSSGSTTYTQKFQGRVTMTRDTSTSTVYIELSGLRSEDTAVYYCARGETLRGYFDYWGQGTLVTVSS
notes: On mRNA-electroporated T cells as CAR; also called Meso-CAR (M12)
CD40-Fc [1]
  binding result: no binding (tested: 2 µg/mL)
[2]
  percent of cells in the gate: 86.5%
CD40-Fc [3]
  binding result: no binding
